Source: publication PMC2517623

Molecular target: Crm1 (Xpo1) (UniProt P30822)
Test: biotin-peptide streptavidin pulldown, stained gel

Ace2 122-150 (from UniProt P21192) pS122 peptide, λ-phosphatase treated
binding against the reference (reference: pS122 peptide, untreated, sites S122): stronger

Ace2 122-150 (from UniProt P21192) pS137 peptide
binding against the reference (reference: unphosphorylated 122-150 peptide, sites S137): weaker

Ace2 122-150 (from UniProt P21192) pS137 peptide, λ-phosphatase treated
binding against the reference (reference: pS137 peptide, untreated, sites S137): stronger

Ace2 122-150 (from UniProt P21192) pS122 peptide
binding against the reference (reference: unphosphorylated 122-150 peptide, sites S122): weaker
